Data: the supplement of paper PMC12455559

Test: purified protein yield per well (BCA); higher = higher soluble expression
Summary of the method: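 The measured quantity is purified protein yield per well, determined with the Pierce Rapid Gold BCA kit. Anything below 25 ug (0.1 mg/mL) lies under the detection threshold. Enzymes were expressed in E. coli C41(DE3) in 2 mL autoinduction cultures with 100 µg/mL kanamycin at 37 °C for 2 h, then 18 °C for 40 h, and purified on an OT-2 robot using Ni-charged magnetic beads and SUMO protease release.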

Sequence	purified protein yield per well [µg]
DGEYRVLTYTDFPDAPEFGDGTIYYPVGTPGPIGGVAIVPGFTEEQRAVAWLGPRLASHGYAVLIFDTNDRRDPAQVRADELMGAVRVLRAENSRRGSPLFGRIDASKMAIMGHSMGGGGALLAADAHSDQVSAVITFAPYEPTASFSEITVPTLIFGGSADPIAPVADHAWRHFNSIPAST [TEP123]	< 25
DGPYDVDWIYESDGLRNGPYYLGATLYYPINAPEPLASIVIVPGWGMPESTMQDWGPFFASWGIIAMTIGTNNPSTDWPEDRAEALLDAIETIKQENDRIDSPVNGRIDLNSFAVSGWSMGGGGAQLAAVMEPTLKAVIALCPWLDNWVLEPDDLNHSVPTLIFSGQYDVNAPPYLHANIHYNYTPSTTDKLLFEVEYGDHYVANGPNGGSGYVGDKALEWIN [TEP053]	< 25
DGPYDVDWIYESDGLRNGPYYLGATLYYPINTSESLASIVIVPGWGMPESSIQNWGPFFASWGIIAMTIGTNNPYDWPEERAEALLDAIETIKQENVRSDSPVYGMVDINSFAVCGYSMGGGGAQWAATIDSYLDAVVALNPALAIYDTINCTDPEFDYYCLVPEHLNHSTPVLIITGENEDANGTSATGYNHYEYTPNATDKMFFQVSNSGHEAAYGPYGANGEVGEKSMQWLKFHLFCLEFLNIIKLQRKLKMI [TEP020]	< 25
DGYERGPDPTPTRLLGNGSFSVSTTSVSSLVLGFGGGTIYYPTSTSEGTFGGVVLSPGFTATSGSYAGVARRVASHGFVVLVIDTNTIYDQPDSRGRQILDAVDYLTEDAPSAVASRLDESRIAVSGHSMGGGGTLYAADNRTSVIKTAVALQPWHTDKTWPGVDIPTMIIGAENDAIAPVSSHSIPFYASLSGAPEKAYGEVNNAGHLIANTNDDWQGRLFVSWLKRYLDEDLRYEAFLCPAPSSISLSDYRDTCPG [DP030]	< 25
DPTAFAVHGPDPTAQSVQAQRGPYATSRTTVSSGTGFNRGTIYYPTTTSEGTFSAVAVIPGFTESESTMSWYGTTLSSHGFVVFTLEAEGGLDFPDARADQLLAALDYLVNSSSVRDRVDRNRLGVMGHSMGGGGTLEAANERPSLRAAIPLAAWHNTKNFPQVQAATLVISAEGDSVASPASHSEPFYQGLRSAEKAYLELNNGNHFTTNSYTPTVTKYAVSWLKRFLDDDTRYSQFLCPPPPPDSNINEYRHTCPV [DP055]	< 25
DSPYERGPDPTERSIEATRGPFSVSTISVSDFSTPGFGAANITYPTSRSEGTFGVVAISPGYTAGESTIAWLRPRIASQGFVVISFDTNSRTDFPSSRGDQLLAALDYVIEDSSVRDRVDGSRQAVMGHSMGGGGSLEAASDRRSIEAVVGLTPWNSDKTWSEVDAASLMIGAENDSVAPARTHAIPFYNSLTGAEDRAYLELDGASHLAPTFSNTEIAKYSISWLKRFVDDDDRYDQFLCPAPSTGFGSPLSDSRVSCPLG [DP098]	< 25
DSQNPYERGPVPTLESITAESGPFAIGSVTVPAGSGQGFNSGTVYYPTDTSKGTFGAIAIMPGFLASQSDIAWYGPRLASHGFVVMTLNTSALWDFPADRSRQQLAALTYLTAQSTVKNRIDPGRLAVMGWSMGGGGSLQSAASTPSLKAAIPLAPWDLSNVSSRITVPTMIFGADGDTVASVDDFARPFYNGLANAPDKSLIVLKGTDHFTFAKPNTTIARYSVSWLKRFVDNDTRYDQFLCPTPNDPNTVVLQITCPL [DP028]	< 25
DSTSDQHGPDPTKASIEAERGPFDVARVTVPRAGASGFGGGTIYYPSSTEEGKFGAVAIAPGFTASQSSMAWFGPRLASQGFVVFTIDTVTTSDQPDMRGDELRAALRYLTGSSKVKDRIDADRLAVMGHSMGGGGTLEAAKDDPALRAAIPLTPWDLNKNFSRVKTPTMIIGGQSDTIAPVASHSEPFYRSLPDTASKAYLELRGASHFAPNMPNTTIAEYSISWLKRFVDDDRRYDQFLCPAPGASVQISQYLSTCPY [TEP166]	< 25
EENPYARGPAPTNASIEADRGSFQTATEKVPAGQGFGGGTIHYPTDTGQGTFGAIAIAPGFFETESAIAWYGPRLASQGFVVITFSTKSTWDTPDLRSDQLLAALRYVTDKSQAKDRVDPGRLAVMGHSMGGGGSLIAAQKAPTLKAAIPLTGWNPNTVFSDLKVPTFVVSAQNDFIAPDGSHSRPFYQSLPESLDKAYLLLAGAGHMAPTKPNVTIAKYSLSWLKRFVDEDTRYDQFLCPLPANDPKIAVYRGTCPLG [TEP064]	< 25
ENPHERGPDPTEESVTAPTGPFDTDTENVSSLVSGFGGGTIYYPTDDSEGTFGGVVVAPGYTASESSMSWYGERIASQGFVVFTIDTNTRYDQPNSRGRQMESALDYLVEDSDVDDMVDGDRLALMGHSMGGGGTLAAAEDRPELRAAIPLTPWHLSKDWSDVEVPTMIVGAENDSIASTRSHAVPLYESLDEDLDSTYLELRNATHFAPNISNTTIAKYSISWLKRFVDDDVRYEQFLCPAPDTGFGTDFSDYRDSCPHGGSV [DP041]	< 25
EPYASIVIVPGYGMIEASIQDWGPFFASWGIIAMTIGTNNPYDFPEERVEALLDAIETIKQENDRINSPIYEKVDLNSFAVSGWSMGGGGAQLAAVIEPTLKAVIALCPWLDNWVLEPDDLNHSVPTLIFSGQYDVNAPPYLHANIHYNYTPSTTDKLLFEVEYGDHYVANGPDGGSGYVGDRAHEWINNYLLGD [TEP055]	< 25
FDPPNGAVIMVPGFRGTPPVYDWWGPMLASVGVITMIIETNTPEDSLEARKNAFIAGVEFLSGENDNPASPIRDKLDTSNIAIMGHSLGGGASLRAAEELGSRIKAVIPLTPYCCELGQSFEGNLSGVSVPTLIIASAEDAIAPPAEHARMLYDSVNAATEKVYLEFATGNHMLPSNSGQDLETLGTYVYAFIKENFTDNPRYADFIFGDGEEQFSTYEISQ [TEP136]	< 25
FGAVAISPGFTAAWSSLSWLGPRLASHGFVVIGIETNSRLDQPASRGDQLLAALDWAVNQSPAASRIDRNRLAVAGHSMGGGGTLEAAKDRPSLKAAIPIAPWNLDKTWPEIRTPTLILGGENDLIAPVASHAEPFYNSIPASAEKAYLELDNESHFFPQFSNTIMAKYMISWLKRFVDNDTRYDQFLCP [TEP090]	< 25
FGGGTIYYPTSTADGTFGAVVISPGFTAYESSIAWLGPRLASQGFVVFTIDTNTTLDQPDSRGRQLLAALDYLTQRSSVRTRVDATRLGVMGHSMGGGGSLEAAKSRPSLKAAIPLTGWNTDKTWPELRTPTLVVGADGDSIAPVATHSEPFYESLPGSLDKAYLELRGASHFTP [TEP045]	< 25
FNPGSGGGSGGANTCETNCGFERGPDPTLSGLRSGTGPYSVSTVDVPYGSAGFGGGTIHYPTNTSGGKMGAIAVIPGFVSPESSIGWWGPALASQGFVVLTMGTQTPLDSPSARARQLTAGLDHLVEQSNSSSSAISGLVDPSRVAMVGWSMGGGGTLKNAAGDRLSAAIPLAPFDMDMSSYKNIETPTMILGCESDIIAAADLFAVPSYEHIPESTDKAYFEFAGQGHWCANGNNDNNELLSILGVSWMKRYLDKDTRYDQFLCGTNHSSNSAFSQVRDTCN [DP064]	< 25
FPAVVLAVSKQPHTDTRALTDEIKTALREIEPSLPAEITVNAELFQMKRFIDTGVWNVGEALAIGAVVVQPTGAGAQTGEFRKGPDPTEASVRASSGTFTTTTASVSSLVAGFGGGTIHYPTDTSQGTYGAIAFAPGFTASSASYSWIGPRIASQGFVVFLINTDSRYDFPASRATQLQNALNYLVNSSVAASRIDLNRLAVG [TEP030]	< 25
FRSRGATIFYPEEPSHPLASIVIVPGWSSSERSIRAWGPFLASHGMVTMTIGTNNPPRDFPEQRAAALLDAIATLRAENARDTSPIFEKLDLSRIAVGGWSMGGGGAQLAAVQDPALKAAIGLCPWHEAPDIFEHTVPLLIIGGEKDRRAPFNEHGLVHYCTTPPATPKLLFEVRDAGH [TEP100]	< 25
FSAPGPSAPCSNCTRGPAPTATALKASSGPFTTAKFSVSGFLKGFGDSTVYYPTNTTGKMGAIAVIPGYLSYENSIDWWGPRLASHGFVVMTMNTETIYDQPDSRASQLSEALDYLIAQSNSSSSPIYNKVDSTRLGAIGWSMGGGGSLKLSTQRSINAIIPQAPWYLGSSAFSGIKTPALILACSADTVAPVAQHASPFYNQIPNSTPKAFLEIYGGSHFCANSGYPNQSMLGMYGIAWMKRFIDFDSRYSQFLCGPNHESDLAISDYRQNCPY [ESM044]	< 25
FSFTPPPEPNPDPDPTPPCEVDCDFTRGPDPSSSYLEAASGPYSVNTINVSSSVSGFGGGTVYYPTGTSGLMGAISIAPGFFAAESSIGWWGPRLASHGFVVITIATNSIFDGTDSRATQLDRALDYVINQSNSGSSAISGMVDSNRVGAMGWSMGGGGSLILGSGTRLSAVIPLAPWESGSNNFDQMTAPTLIIACENDGTAPVASHASPFYNTIPGTTDKAFLEINGGGHSCANGGGVNG [ESM098]	< 25
FTASQSSIQWYGPLLAGEGFVVITIDTNTIFDQPDSRATQLLAALDYLTGSSDVRHIVDPNRLAVAGWSMGGGGSLEAAVRRPSLKAAIPLAGWHTTKTFNTAVPTLVVACENDAVAGNAQHSGPFYDGLPASTPKAYLEIAGGDHTCVGSYDINIATPVVAWAKRWVNGDTSASAQLCPPKPIGGPISDSKANCPY [ESM171]	< 25
FTPSPDPTPDPEPTPEPCQGDCDFTRGPDPSISYLEADNGPYTVRTIDVPSSAGSFNGGTIHYPSGTSGTMGAIAVASGFLAPEGDIIWWGPRLASHGFVVITISTPTFDGEDRRATQLSEALDYVIAQSNSNGSDISGMVDGSRLGAMGWSMGGGGTLQLASGTRLSAAIPLAPWNSGSNNFDQIETPTLIIACENDGTAAVGTHASPFYHSIPASTDKAFLEINGGGHSCANGGGTNGGLLGKYGVSWMKLFMDDDSRYSQFLCGPNHAANSAISEYRDTCNY [DP049]	< 25
GAAGNPYERGPDPTESSIEAPRGHYAVSETSVSALGVTGFGGGTIYYPTSTADGTFGAVAIAPGYTSLQSSIAWLGPRLASQGFVVITIDTRTTLDQPAGRGAQLLAALDYLTRRSSVRNRIDSGRLGVMGHSMGGGGSLEAAKGRPSLQAAIPLTGWNLDKTWPEIRVPTLLVGADGDTIAPVATHSQPFYQSLPSTLDRAYLELNNATHFTPNRPDTTIAKYSVSWLKRFIDNDTRYEQFLCPLPRPSRTIEEYRGNCPHTS [TEP007]	< 25
GASAPAANPYERGPAPTEQALLAPLGSFTYSTVVVPRSQVTGFGGGTIYYPDDTSQGTYGGVVAVPGFVSPEGAVAWLGPHMASRGFVVFTIATTSPFDQPTARGKQLLAALDHLTQRTPDAVRKRLDPARLAVTGHSMGGGGALYASGARPGIKAAIPLAPYNQDKTWNEVATPTLVVGGSADQIASVDKHARPFYNSLTGARDRGLLNVAAADHGDFTQENSITGRYAAAWLKRFVDEDTRYDQYLCPATGGPGVTEYSASCPLS [TEP151]	< 25
GFGGGMIYYPTDTSQGTFGGIAISPGYTAQFSVELSWMGPWLASHGFVVIGIETNSPTDFDQARGTQLLAALDYLTQQSPVRTRVDASRLAVAGHSMGGGGALNAAIRRPSLKATVGITPFLPSSNLANDHVPTMLIAGQADTVVSTSSVINQYNSLPATTKSVFLEVAGGDHGFMVGRPNTVMVRTMLPFLKIFVDNDSRYSKFLCPLMDSSGITQYRST [ESM170]	< 25
